Where no end group is shown, it is not given here. [ ]: non-standard residue; d: D form. Lys(Me3) = C[N+](C)(C)CCCC[C@H](N)C(=O)O; Arg(Me) = CNC(=N)NCCC[C@H](N)C(=O)O
T1: MLL3 ePHD6 E1097A (human, UniProt Q8NEZ4 1055-1144, E1097A)
T1 sequence: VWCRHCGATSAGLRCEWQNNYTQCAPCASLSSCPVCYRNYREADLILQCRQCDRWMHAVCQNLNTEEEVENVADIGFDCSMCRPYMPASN

T2: MLL4_(ePHD6)_(1475–1564) (human, UniProt O14686 1475-1564)
T2 chain: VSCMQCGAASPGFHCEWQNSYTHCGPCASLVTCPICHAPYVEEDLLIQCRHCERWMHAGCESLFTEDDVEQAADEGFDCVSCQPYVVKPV

T3: MLL3_(ePHD6)_(1055–1144) (human, UniProt Q8NEZ4 1055-1144)
T3 chain: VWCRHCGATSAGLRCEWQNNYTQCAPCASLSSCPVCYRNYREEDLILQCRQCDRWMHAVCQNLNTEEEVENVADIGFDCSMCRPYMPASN

T4: MLL3 ePHD6 I1100L (human, UniProt Q8NEZ4 1055-1144, I1100 of MLL3 to leucine)
T4 sequence: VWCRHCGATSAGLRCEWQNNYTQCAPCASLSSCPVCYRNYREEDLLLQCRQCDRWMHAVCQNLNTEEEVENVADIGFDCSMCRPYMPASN


How the values were obtained:
Assay in all cases: ITC
MLL3 ePHD6 E1097A = molecular target: T1, MLL3 ePHD6 E1097A
MLL4_(ePHD6)_(1475–1564) = molecular target: T2, MLL4_(ePHD6)_(1475–1564)
MLL3_(ePHD6)_(1055–1144) = molecular target: T3, MLL3_(ePHD6)_(1055–1144)
MLL3 ePHD6 I1100L = molecular target: T4, MLL3 ePHD6 I1100L

Kd (MLL3 ePHD6 E1097A)	Kd (MLL4_(ePHD6)_(1475–1564))	Kd (MLL3_(ePHD6)_(1055–1144))	Kd (MLL3 ePHD6 I1100L)	Binder
65 µM				GKGGAKRHRKV [histone H4 peptide H4_(11–21)]
	70 µM	113 µM		GKGGAK[Arg(Me)]HRKV [histone H4 peptide monomethylated at R17]
	14 µM		34 µM	GKGGA[Lys(Me3)]RHRKV [H4K16me3 peptide]
